Assay results: patent US20140087995A1 (published 2014)
Numbered stars: 1 amine (or outer) side, 2 acyl side, 3 side chain; on linkers, the order of the positions; unused ones are H or OH. Bridge positions count the residues as written; N and C are the ends. Side chains are listed from the residue outwards. Ends that are not written are not given here. * marks the point of attachment. C20 diacid = O=C(O)CCCCCCCCCCCCCCCCCCC(=O)*; γGlu = O=C(O)[C@H](CCC(=O)[*:2])N[*:1]; AEEA = NCCOCCOCC(=O)O

What was measured:
[1] = biological target: T1, human calcitonin receptor (human, UniProt P30988 25-474); test: ratio IC50 hCTR / IC50 hAmylin-R (reference: human amylin receptor), SPA competition assays
T1 construct: whole, on cells; Assay used cell membranes, not intact cells; also called hCTR; hCT
T1 sequence (looked up): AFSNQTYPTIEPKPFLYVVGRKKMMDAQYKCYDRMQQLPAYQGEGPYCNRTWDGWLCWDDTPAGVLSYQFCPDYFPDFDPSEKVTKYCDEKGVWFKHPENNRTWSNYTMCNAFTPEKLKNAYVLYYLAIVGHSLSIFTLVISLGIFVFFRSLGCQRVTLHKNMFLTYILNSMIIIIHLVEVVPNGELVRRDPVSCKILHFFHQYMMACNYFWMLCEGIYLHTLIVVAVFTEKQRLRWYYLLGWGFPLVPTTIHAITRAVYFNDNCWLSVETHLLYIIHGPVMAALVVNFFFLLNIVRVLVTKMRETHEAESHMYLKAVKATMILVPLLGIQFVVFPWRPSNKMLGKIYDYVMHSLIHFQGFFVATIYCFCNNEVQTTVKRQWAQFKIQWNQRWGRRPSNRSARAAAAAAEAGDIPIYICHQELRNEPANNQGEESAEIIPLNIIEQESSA
Experimental: The resulting pellet was resuspended, homogenized and centrifuged (20.000 rpm, 15 min) in a buffer containing 20 mM Na-HEPES and 0.1 mM EDTA (pH 7.4, buffer 2). The resulting pellet was resuspended in buffer 2 and protein concentration was measured (BCA protein Assay, Pierce). The homogenate was kept cold during the whole procedure. The membranes were kept at −80° C. until use. The assay was performed in a 384 well Optiplate (PerkinElmer) in a total volume of 40 ul. Membranes were mixed with SPA beads. Final concentration of membranes 35 ng/μL final and SPA beads was 0.05 mg/well. Test-compounds were dissolved in DMSO and further diluted in assay buffer (50 mM Hepes, pH 7.4, 1 mM CaCl2, 5 mM MgCl₂, 0.1% OA and 0.02% Tween20). […] The final mixture was incubated with shaking at 400 rpm for 120 min at 25° C. prior to centrifugation (1500 rpm, 10 min). Samples were analyzed on TopCounter™ (Packard). The IC₅₀ was calculated using (one site binding competition analysis) GraphPad Prism5 as a measure of receptor affinity.
Membranes were prepared in the following way; the cells were rinsed with PBS and incubated with Versene for approximately 5 min before harvesting. The cells were flushed with PBS and the cell-suspension was centrifuged for 5 min at 1000 rpm. Cells were homogenized (Ultrathurrax) in a buffer containing 20 mM Na-HEPES and 10 mM EDTA (pH 7.4) and centrifuged at 20.000 rpm for 15 min. The resulting pellet was resuspended, homogenized and centrifuged (20.000 rpm, 15 min) in a buffer containing 20 mM Na-HEPES and 0.1 mM EDTA (pH 7.4, buffer 2). The resulting pellet was resuspended in buffer 2 and protein concentration was measured (BCA protein Assay, Pierce). The homogenate was kept cold during the whole procedure. The membranes were kept at −80° C. until use. Assay was performed in a 384 well Optiplate (PerkinElmer) in a total volume of 40 ul. Membranes were mixed with SPA beads.

[2] = biological target: T2, human amylin receptor (amylin 3(a) receptor: human calcitonin receptor with RAMP-3) (human, UniProt P30988 25-474; O60896 24-148); test: SPA competition with 125I-rat amylin on membranes of BHK cells with human calcitonin receptor and RAMP-3 (Assay V)
T2 construct: whole, on cells; Assay used cell membranes of the Amylin 3(a)/CRE-luc BHK cells, not intact cells; also called hAmylin-R; hAmylinR
T2 sequence (looked up) 1: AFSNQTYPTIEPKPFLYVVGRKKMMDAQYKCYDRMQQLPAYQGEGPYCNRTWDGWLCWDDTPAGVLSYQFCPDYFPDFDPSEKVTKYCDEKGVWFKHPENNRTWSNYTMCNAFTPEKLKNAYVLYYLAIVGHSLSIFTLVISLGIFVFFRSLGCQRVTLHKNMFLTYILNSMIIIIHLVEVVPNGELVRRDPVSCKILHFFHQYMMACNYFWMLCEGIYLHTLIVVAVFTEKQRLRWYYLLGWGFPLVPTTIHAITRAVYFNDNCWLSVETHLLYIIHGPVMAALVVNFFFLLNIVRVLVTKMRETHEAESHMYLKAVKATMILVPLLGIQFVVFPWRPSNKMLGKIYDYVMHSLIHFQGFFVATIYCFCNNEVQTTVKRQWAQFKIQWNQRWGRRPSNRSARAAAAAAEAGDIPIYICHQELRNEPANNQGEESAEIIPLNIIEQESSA
T2 sequence (looked up) 2: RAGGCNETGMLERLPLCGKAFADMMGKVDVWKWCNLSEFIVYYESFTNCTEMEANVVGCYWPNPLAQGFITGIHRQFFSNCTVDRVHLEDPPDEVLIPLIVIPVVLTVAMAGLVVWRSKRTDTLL
Experimental: The binding assay was performed using scintillation proximity assay (SPA) beads (RPNQ0001) from PerkinElmer and cell membranes from the Amylin 3(a)/CRE-luc cells (as described in Assay (II)) were used. Membranes were prepared in the following way; the cells were rinsed with PBS and incubated with Versene for approximately 5 min before harvesting. The cells were flushed with PBS and the cell-suspension was centrifuged for 5 min at 1000 rpm. Cells were homogenized (ultrathurrax) in a buffer containing 20 mM Na-HEPES and 10 mM EDTA (pH 7.4) and centrifuged at 20.000 rpm for 15 min. The resulting pellet was resuspended, homogenized and centrifuged (20.000 rpm, 15 min) in a buffer containing 20 mM Na-HEPES and 0.1 mM EDTA (pH 7.4, buffer 2). The resulting pellet was resuspended in buffer 2 and protein concentration was measured (BCA protein Assay, Pierce). The homogenate was kept cold during the whole procedure. The membranes were kept at −80° C. until use. The assay was performed in a 384 well Optiplate (PerkinElmer) in a total volume of 40 ul. Membranes were mixed with SPA beads. Final concentration of membranes 35 ng/μL final and SPA beads was 0.05 mg/well. Test-compounds were dissolved in DMSO and further diluted in assay buffer (50 mM Hepes, pH 7.4, 1 mM CaCl2, 5 mM MgCl₂, 0.1% OA and 0.02% Tween20). […] The final mixture was incubated with shaking at 400 rpm for 120 min at 25° C. prior to centrifugation (1500 rpm, 10 min). Samples were analyzed on TopCounter™ (Packard). The IC₅₀ was calculated using (one site binding competition analysis) GraphPad Prism5 as a measure of receptor affinity.

[3] = biological target: T1, human calcitonin receptor; test: SPA competition with 125I-calcitonin on membranes of BHK cells with human calcitonin receptor (Assay VII)
Experimental: Membranes were prepared in the following way; the cells were rinsed with PBS and incubated with Versene for approximately 5 min before harvesting. The cells were flushed with PBS and the cell-suspension was centrifuged for 5 min at 1000 rpm. Cells were homogenized (Ultrathurrax) in a buffer containing 20 mM Na-HEPES and 10 mM EDTA (pH 7.4) and centrifuged at 20.000 rpm for 15 min. The resulting pellet was resuspended, homogenized and centrifuged (20.000 rpm, 15 min) in a buffer containing 20 mM Na-HEPES and 0.1 mM EDTA (pH 7.4, buffer 2). The resulting pellet was resuspended in buffer 2 and protein concentration was measured (BCA protein Assay, Pierce). The homogenate was kept cold during the whole procedure. The membranes were kept at −80° C. until use. Assay was performed in a 384 well Optiplate (PerkinElmer) in a total volume of 40 ul. Membranes were mixed with SPA beads. Final concentration of membranes 35 ng/μL final and Final concentration of SPA beads was 0.05 mg/well. Test-compounds were dissolved in DMSO and further diluted in assay buffer (50 mM Hepes, pH 7.4, 1 mM CaCl2, 5 mM MgCl₂, 0.1% OA and 0.02% Tween20). […] The final mixture was incubated for 120 min with shaking at 400 rpm at 25° C. prior to centrifugation (1500 rpm, 10 min). Samples were analyzed on TopCounter™ (Packard). The […] was calculated using (one site binding competition analysis) GraphPad Prism5 as a measure of receptor affinity.

| Binder | Ratio hCT/hAmylin binding [1] | IC50 [2] [nM] | IC50 [3] [nM] |
| --- | --- | --- | --- |
| K([AEEA-C20 diacid])CNTATCATQRLAHFLRHSSPNFGAIPSSTNVGSNTY-NH2 (disulfide 2-7; N-terminus assumed; SMILES CC[C@H](C)[C@H](NC(=O)[C@H](C)NC(=O)CNC(=O)[C@H](Cc1ccccc1)NC(=O)[C@H](CC(N)=O)NC(=O)[C@@H]1CCCN1C(=O)[C@H](CO)NC(=O)[C@H](CO)NC(=O)[C@H](Cc1c[nH]cn1)NC(=O)[C@H](CCCNC(=N)N)NC(=O)[C@H](CC(C)C)NC(=O)[C@H](Cc1ccccc1)NC(=O)[C@H](Cc1c[nH]cn1)NC(=O)[C@H](C)NC(=O)[C@H](CC(C)C)NC(=O)[C@H](CCCNC(=N)N)NC(=O)[C@H](CCC(N)=O)NC(=O)[C@@H](NC(=O)[C@H](C)NC(=O)[C@@H]1CSSC[C@H](NC(=O)[C@@H](N)CCCCNC(=O)COCCOCCNC(=O)CCCCCCCCCCCCCCCCCCC(=O)O)C(=O)N[C@@H](CC(N)=O)C(=O)N[C@@H]([C@@H](C)O)C(=O)N[C@@H](C)C(=O)N[C@@H]([C@@H](C)O)C(=O)N1)[C@@H](C)O)C(=O)N1CCC[C@H]1C(=O)N[C@@H](CO)C(=O)N[C@@H](CO)C(=O)N[C@H](C(=O)N[C@@H](CC(N)=O)C(=O)N[C@H](C(=O)NCC(=O)N[C@@H](CO)C(=O)N[C@@H](CC(N)=O)C(=O)N[C@H](C(=O)N[C@@H](Cc1ccc(O)cc1)C(N)=O)[C@@H](C)O)C(C)C)[C@@H](C)O, also called compound 90) [N^ε1-[2-[2-[2-(19-carboxynonadecanoylamino)ethoxy]ethoxy]acetyl]-[His14,Arg17,Pro21,Pro27]-h-amylin] | 42.2 | 0.061 | 2.57 |
| K([AEEA-AEEA-γGlu-C20 diacid])CNTATCATQRLANFLRHSSPNFGAIPSSTNVGRNTY-NH2 (disulfide 2-7; N-terminus assumed; SMILES CC[C@H](C)[C@H](NC(=O)[C@H](C)NC(=O)CNC(=O)[C@H](Cc1ccccc1)NC(=O)[C@H](CC(N)=O)NC(=O)[C@@H]1CCCN1C(=O)[C@H](CO)NC(=O)[C@H](CO)NC(=O)[C@H](Cc1c[nH]cn1)NC(=O)[C@H](CCCNC(=N)N)NC(=O)[C@H](CC(C)C)NC(=O)[C@H](Cc1ccccc1)NC(=O)[C@H](CC(N)=O)NC(=O)[C@H](C)NC(=O)[C@H](CC(C)C)NC(=O)[C@H](CCCNC(=N)N)NC(=O)[C@H](CCC(N)=O)NC(=O)[C@@H](NC(=O)[C@H](C)NC(=O)[C@@H]1CSSC[C@H](NC(=O)[C@@H](N)CCCCNC(=O)COCCOCCNC(=O)COCCOCCNC(=O)CC[C@H](NC(=O)CCCCCCCCCCCCCCCCCCC(=O)O)C(=O)O)C(=O)N[C@@H](CC(N)=O)C(=O)N[C@@H]([C@@H](C)O)C(=O)N[C@@H](C)C(=O)N[C@@H]([C@@H](C)O)C(=O)N1)[C@@H](C)O)C(=O)N1CCC[C@H]1C(=O)N[C@@H](CO)C(=O)N[C@@H](CO)C(=O)N[C@H](C(=O)N[C@@H](CC(N)=O)C(=O)N[C@H](C(=O)NCC(=O)N[C@@H](CCCNC(=N)N)C(=O)N[C@@H](CC(N)=O)C(=O)N[C@H](C(=O)N[C@@H](Cc1ccc(O)cc1)C(N)=O)[C@@H](C)O)C(C)C)[C@@H](C)O, also called compound 95) | 63.4 | 0.967 | 61.3 |
